Reference: PMC6459815

Target: recombinant CD47 (integrin associated protein), K24-S139, GST-fused (human)
Test: SPR; Biacore X100; recombinant CD47 immobilised on a CM5 chip (amine coupling), analyte at 0.125, 0.25, 0.5, 1 and 2 uM, single-cycle kinetics, 120 s contact, 180 s dissociation (last cycle 580 s); HBS-EP+ (10 mM HEPES pH 7.4, 150 mM NaCl, 3 mM EDTA, 0.05% P20)

Substance: recombinant PfMSA180-Tr4 (PfMSA180 truncate 4, residues A805-P1093) (domain or fragment)
- Kd: 2.06 nM
- stoichiometry N: 1
